Data published in patent US20220073608A1 (JIANGSU HUAIYU PHARMACEUTICAL, published 2022).

T1: biotinylated hSEMA4D ECD-His (human, UniProt Q92854 22-734, biotinylated with Biotin-X-X-NHS at a molar ratio of 8:1; sites not stated)
T1 construct: also called biotinylated immunogen; not shown: His tag of the pCP vector
T1 sequence: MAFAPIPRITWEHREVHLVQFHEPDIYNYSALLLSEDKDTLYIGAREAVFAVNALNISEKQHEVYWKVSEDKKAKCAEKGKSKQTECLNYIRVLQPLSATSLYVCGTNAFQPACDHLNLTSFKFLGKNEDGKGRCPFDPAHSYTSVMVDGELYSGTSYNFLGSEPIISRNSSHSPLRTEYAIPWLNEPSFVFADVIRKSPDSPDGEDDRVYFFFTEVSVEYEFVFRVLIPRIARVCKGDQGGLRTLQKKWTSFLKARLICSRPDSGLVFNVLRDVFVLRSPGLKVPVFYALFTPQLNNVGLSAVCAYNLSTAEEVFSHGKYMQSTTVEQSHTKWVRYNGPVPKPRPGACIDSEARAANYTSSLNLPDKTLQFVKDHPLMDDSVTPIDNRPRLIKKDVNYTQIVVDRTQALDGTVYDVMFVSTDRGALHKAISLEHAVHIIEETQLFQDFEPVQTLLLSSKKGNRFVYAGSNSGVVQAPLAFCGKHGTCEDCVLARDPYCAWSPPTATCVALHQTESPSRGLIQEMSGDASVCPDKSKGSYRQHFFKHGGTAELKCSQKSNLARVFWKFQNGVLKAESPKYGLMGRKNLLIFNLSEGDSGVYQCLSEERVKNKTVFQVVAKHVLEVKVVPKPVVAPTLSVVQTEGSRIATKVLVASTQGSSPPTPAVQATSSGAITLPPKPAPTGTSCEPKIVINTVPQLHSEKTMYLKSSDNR


Experiments:
[1] = molecular target: T1, biotinylated hSEMA4D ECD-His; assay: FACS, blocking of biotinylated hSEMA4D ECD-His binding to 293F hPlexin B1 cells; Ab 0.00427 nM
Description: (§1) The medium was aspirated, the cells were washed once with PBS buffer (purchased from Invitrogen), and then treated with cell dissociation fluid (TrypLE™ Express Enzyme, purchased from Life technology), and the cells were collected. After the cells counted, the cells were washed once with PBS phosphate buffer, and diluted to 1×10⁶ cells per milliliter, and added to the 96-well FACS reaction plate as 100 μL per well. 2% (w/w) fetal calf serum was added to PBS phosphate buffer as FACS buffer, with which the cells were washed once by centrifugation at 2000 rpm 4° C. Meanwhile, the purified leading antibody and biotinylated hSEMA4D ECD-His were mixed and incubated on ice for 30 minutes. Then 100 μL of the mixture was added to each well and the plate was incubated on ice for 1 hour. […] Cells were washed 2 times by centrifugation with FACS buffer. The cells were suspended with 200 μL of FACS buffer, and FACS (FACS Verse, purchased from BD) was used to detect and analyze the results. The results are shown in FIGS. 11A-11B and Tables 20-21.

[2] = molecular target: T1, biotinylated hSEMA4D ECD-His; assay: FACS, blocking of biotinylated hSEMA4D ECD-His binding to 293F hPlexin B1 cells; Ab 13.3 nM
Description: as §1

[3] = molecular target: T1, biotinylated hSEMA4D ECD-His; assay: FACS, blocking of biotinylated hSEMA4D ECD-His binding to 293F hPlexin B1 cells; Ab 0.107 nM
Description: as §1

[4] = molecular target: T1, biotinylated hSEMA4D ECD-His; assay: FACS, blocking of biotinylated hSEMA4D ECD-His binding to 293F hPlexin B1 cells; Ab 0.0213 nM
Description: as §1

[5] = molecular target: T1, biotinylated hSEMA4D ECD-His; assay: FACS, blocking of biotinylated hSEMA4D ECD-His binding to 293F hPlexin B1 cells; Ab 66.7 nM
Description: as §1

[6] = molecular target: T1, biotinylated hSEMA4D ECD-His; assay: FACS, blocking of biotinylated hSEMA4D ECD-His binding to 293F hPlexin B1 cells; Ab 0.534 nM
Description: as §1

[7] = molecular target: T1, biotinylated hSEMA4D ECD-His; assay: FACS, blocking of biotinylated hSEMA4D ECD-His binding to 293F hPlexin B1 cells; Ab 333 nM
Description: as §1

[8] = molecular target: T1, biotinylated hSEMA4D ECD-His; assay: FACS, blocking of biotinylated hSEMA4D ECD-His binding to 293F hPlexin B1 cells; Ab 2.67 nM
Description: as §1

| MFI (residual ligand binding) [1] | MFI (residual ligand binding) [2] | MFI (residual ligand binding) [3] | MFI (residual ligand binding) [4] | MFI (residual ligand binding) [5] | MFI (residual ligand binding) [6] | MFI (residual ligand binding) [7] | MFI (residual ligand binding) [8] | Binder |
| --- | --- | --- | --- | --- | --- | --- | --- | --- |
| 471 | 204 | 454 | 463 | 55.5 | 420 | 85.1 | 333 | 32C8F10 (antibody, V domains shown, Mouse monoclonal antibody purified from hybridoma supernatant on protein A) VH: EVQLQQSGAELVRPGASVKLSCTASGFNIKDEYIHWVKQRPEQGLEWIGWIDPANGHTEYASRFQAKATITADTSSNTAYLQLSSLTSEDTAVYYCTTGDYDGFAYWGQGTLVTVST VL: QIVLTQSPAIMSASPGEKVTISCSARSSVSYMYWYQQKPGSSPKPWIYRTSNLASGVPARFSGSGSGTSYSLTISSMEAEDAATYYCQHYHTYPYTFGGGTKLEIK |
| 470 | 209 | 460 | 466 | 54.2 | 427 | 45.4 | 334 | 31G10C5 (antibody, V domains shown, Mouse monoclonal antibody purified from hybridoma supernatant on protein A) VH: EVQLQQSGAELVRPGASVKLSCTASGFNIKDDYIHWVKQRPEQGLEWIGWIDPANGHIEYASNFQAKATITADTSSNTAYLQLSSLTSEDTAVYYCTTGDYDGFTYWGQGTLVTVST VL: QIVLTQSPAIMSASPGEKVTISCSARSSVSYMYWYQQKPGSSPKPWIYRTSNLASGVPARFSGSGSGTSYSLTISSMEAEDAATYYCQHYHTYPYTFGGGTKLEIK |
| 544 | 266 | 530 | 547 | 54.2 | 513 | 50.8 | 415 | 31C11G2 (antibody, V domains shown, Mouse monoclonal antibody purified from hybridoma supernatant on protein A) VH: EVQLQQSGAELVRPGASVKLSCTASGFNIKDEYIHWVKQRPEQGLEWIGWIDPANGHTEYASRFQAKATITADTSSNTAYLQLSSLTSEDTAVYYCTTGDYDGFVYWGQGTLVTVST VL: QIVLTQSPAIMSASPGEKVTIFCSARSSVSYMYWYQQKPGSSPKPWIYRTSNLASGVPARFSGSGSGTSYSLTISSMEAEDAATYYCQHYHTYPYTFGGGTKLEIK |
